Assay results from the supplement of paper PMC12764529.
± gives the half width of the 95% confidence interval.

What was measured:
[1] = folding stability dG unfold from trypsin proteolysis; higher = more stable
Outline: (§1)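 Unfolding free energy was derived, per protease or combined, by relating Bayesian-fitted K50 values from sequencing counts to a sequence-predicted unfolded-state K50 and a shared folded-state K50. The underlying digests exposed cysteine-free mini-proteins under 80 residues, in a PA-tagged cDNA display construct, to trypsin and chymotrypsin at 11 threefold-diluted concentrations and to a no-protease condition. A filter kept only designs with AlphaFold2 dimer inter-PAE above 15.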

[2] = folding stability dG unfold from chymotrypsin proteolysis; higher = more stable
Outline: as §1

[3] = folding stability dG unfold (combined trypsin and chymotrypsin); higher = more stable
Outline: as §1

| Sequence | folding stability dG unfold [1] | folding stability dG unfold [2] | folding stability dG unfold [3] |
| --- | --- | --- | --- |
| SAGGSAGGSAKTVTLTIEITNEDGKKFTAKIEVTYDEETGEFTVRIEIFDKNGKLIAEFPLSAGGSAGGSAG [r3_154_TrROS_Hall] | 3.72 ± 0.17 kcal/mol | 5.1 ± 0.1 kcal/mol | 4.98 ± 0.2 kcal/mol |
| SAGGSAGGSAKVEPVGVDPKNLVVVYRFENFTVAVTYDPESGKVTVRITDPDGNVLEFELSSAGGSAGGSAG [r3_25_TrMRF] | 2.24 ± 0.077 kcal/mol | 4.112 ± 0.041 kcal/mol | 3.71 ± 0.086 kcal/mol |
| SAGGSAGGSAKVILLPSPDDSVVLITVHPDDTVEVTVLRLNPEDPTYEPVTVTVPLSYPELFSAGGSAGGSA [r18_503_TrMRF] | 0.903 ± 0.044 kcal/mol | 0.791 ± 0.19 kcal/mol | 0.843 ± 0.18 kcal/mol |
| SAGGSAGGSAKYKPIGELEFEFENGIRLRVTFYEGEGEKIAIVEIEIPEPSLEEAIKILESSAGGSAGGSAG [r3_158_TrMRF] | 2.14 ± 0.095 kcal/mol | 2.79 ± 0.037 kcal/mol | 2.56 ± 0.09 kcal/mol |
| SAGGSAGGSALDPSAPYVVLIDIDIEPEKAEVEKIPGIPKYIVKKIDLKITIKIEIVSAKDASAGGSAGGSA [r18_137_TrMRF] | 2.28 ± 0.17 kcal/mol | 3.14 ± 0.087 kcal/mol | 2.84 ± 0.08 kcal/mol |
| SAGGSAGGSALELIKEIAEEHNIPVDIEPTGNKIRVEIEMPNPDGQPVKHTIEIPIPPDENQSAGGSAGGSA [r18_27_TrROS] | 0.389 ± 0.11 kcal/mol | 1.08 ± 0.078 kcal/mol | 0.975 ± 0.2 kcal/mol |
| SAGGSAGGSALLEALKALPPNATLTLVTVETRTETVTDADGSTHTRTTTRVTVTTITIRPEDLSAGGSAGGS [r12_805_TrROS_Hall] | 2.27 ± 0.12 kcal/mol | 3.67 ± 0.089 kcal/mol | 3.18 ± 0.12 kcal/mol |
| SAGGSAGGSALPDLEFPFELVEEVEVPVYDPLSDEVLGTVRVWKVRVPGGPELTLVEFDPESAGGSAGGSAG [r3_166_TrMRF] | 1.27 ± 0.017 kcal/mol | 1.3 ± 0.047 kcal/mol | 1.35 ± 0.061 kcal/mol |
| SAGGSAGGSALVVRLENGKEILIEGMSEEEIKELLDKLLPPEEKKNLKIVKVEVFEVEKPESAGGSAGGSAG [r3_340_TrROS_Hall] | 1.62 ± 0.1 kcal/mol | 1.14 ± 0.096 kcal/mol | 1.29 ± 0.18 kcal/mol |
| SAGGSAGGSAMDVFTAALNNKELEEAIKKASPDEKEIEIELPGGKKIRIFRTDDGGYIFEPSAGGSAGGSAG [r3_124_TrMRF] | 1.8 ± 0.055 kcal/mol | 1.32 ± 0.11 kcal/mol | 1.52 ± 0.11 kcal/mol |
| SAGGSAGGSAMETVYIPKEEVEKDPEKLEEIKEKLKKELEEKGKKVEFKEDPNGGYTITVESAGGSAGGSAG [r3_75_JUSTAS] | 0.343 ± 0.054 kcal/mol | 0.855 ± 0.029 kcal/mol | 0.663 ± 0.13 kcal/mol |
| SAGGSAGGSAMETYEIEVNGKLITITRSEDGTYKITDKDTGKTITIPAEDLKKLKPGDKLLSAGGSAGGSAG [r3_256_TrROS_Hall] | 1.79 ± 0.078 kcal/mol | 2.18 ± 0.036 kcal/mol | 2.15 ± 0.14 kcal/mol |
| SAGGSAGGSAMFPDNTTVIEKEVPSSDVESAIEEIKKEYGVENYEVTTEPRPGTVKITVTIKPSAGGSAGGS [r12_929_JUSTAS] | 1.65 ± 0.064 kcal/mol | 1.34 ± 0.038 kcal/mol | 1.53 ± 0.093 kcal/mol |
| SAGGSAGGSAMIEDPATGRVYELDPSVPTVTVYEKTEGEGGEVVEKGVVEADPANPEKALLESAGGSAGGSA [r18_448_JUSTAS] | 0.45 ± 0.048 kcal/mol | 0.826 ± 0.073 kcal/mol | 0.716 ± 0.069 kcal/mol |
| SAGGSAGGSAMIGGGEDGNLVFLVTEDGKPLVLVAPPDEIKKILEELGIKDVVVVKPLPELSAGGSAGGSAG [r3_141_TrMRF] | 1.18 ± 0.043 kcal/mol | -0.0844 ± 0.13 kcal/mol | 0.762 ± 0.1 kcal/mol |
| SAGGSAGGSAMITYTAPGGTPVTVTPDPVTGTLSATFPDGSVITAPVVGDTIPVTVVPPAAVSAGGSAGGSA [r18_405_JUSTAS] | 1.37 ± 0.023 kcal/mol | -0.295 ± 0.11 kcal/mol | 0.851 ± 0.042 kcal/mol |
| SAGGSAGGSAMKEIKIELTYEDEEEAEKKAKEEKEKIKKELEEKGIKVEKITVEIHPPYHHSAGGSAGGSAG [r3_463_JUSTAS] | -0.647 ± 0.095 kcal/mol | 1.12 ± 0.067 kcal/mol | 0.796 ± 0.14 kcal/mol |
| SAGGSAGGSAMKIEIEKTEDTIKVRIKRKDGKEIEIEIPKENMSLEEIKKLAEELGIEKVEPSAGGSAGGSA [r18_83_TrROS_Hall] | 1.49 ± 0.17 kcal/mol | 1.63 ± 0.073 kcal/mol | 1.6 ± 0.17 kcal/mol |
